The values that follow come from US20140112926A1.

In experiment [1] the target is GST-tagged version of human FcγRIIIA (human) (UniProt P08637). Briefly: AlphaLISA vs biotin-huIgG, supernatant, round 1. On the technique in general: Alpha assays give light when donor and acceptor beads are brought close together.
For experiment [2] the target is unchanged. Briefly: AlphaLISA vs biotin-huIgG, supernatant, round 3.
Experiment [3] has the same target. Put plainly: AlphaLISA vs biotin-huIgG, supernatant, round 2.

As usually defined, the % inhibition is the percentage by which the read-out fell short of the control. A low value points to a weak effect.

GST-tagged version of human FcγRIIIA (human), sequence (P08637 17-208 limits assumed): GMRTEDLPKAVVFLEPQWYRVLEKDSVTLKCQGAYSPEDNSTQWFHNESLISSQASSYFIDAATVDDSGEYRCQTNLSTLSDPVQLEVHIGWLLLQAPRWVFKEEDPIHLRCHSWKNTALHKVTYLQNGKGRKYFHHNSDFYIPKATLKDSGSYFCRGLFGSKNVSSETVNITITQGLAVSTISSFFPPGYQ

As to “scFv-Fc/Fc, I332E in dummy Fc (Fc fusion)”, the % inhibition in experiment [1] amounted to 85.8%; in experiment [2] it was 85.3%; in experiment [3], 87.7%. For the same substance, the Alpha signal in experiment [1] was 10800; in experiment [2], 11500; in experiment [3] it was 9880.

Turning to “scFv-Fc/Fc, Y296L in scFv-Fc (Fc fusion)”, the results for the % inhibition in experiment [1], in experiment [2] and in experiment [3] were 23.1%, 18.2% and 24.7%, respectively. Moreover, the Alpha signal in experiment [1] worked out at 58500; in experiment [2], 64300; in experiment [3] it was 60600.

Turning to “scFv-Fc/Fc, T307E in scFv-Fc (Fc fusion)”, the % inhibition in experiment [1] turned out to be 71.5%; in experiment [2], 67.2%; in experiment [3], 76.4%. Further, the Alpha signal in experiment [1] stood at 21700; in experiment [2] it was 25800; in experiment [3] it was 18900.

Take “scFv-Fc/Fc, N315S in scFv-Fc (Fc fusion)”: the % inhibition in experiment [1] was 65.8%; in experiment [2] it was 63.4%; in experiment [3], 75.8%. Further, the Alpha signal in experiment [1] worked out at 26000; in experiment [2] it was 28800; in experiment [3], 19500.
